Test results taken from patent US20240350615A1 (BEIJING WANTAI BIOLOGICAL PHARMACY ENTERPRISE, published 2024).

Target: T1, polypeptide 2C01 (human rhinovirus (W10 (HRV-C15)))
T1 construct: synthetic peptide coated on the ELISA plate; also called 2C (aa 151-163)
T1 peptide: YSLPPDPKYFDGY
Assay: indirect ELISA, peptide coated 1 ug/well, 9A5 at 2 ug/mL

B1: monoclonal antibody 9A5 (antibody, V domains shown)
VH: EVQLVESGGDLVKPGGSLKLSCAASGFTFSIYGMSWVRQTPDKRLEWVATISSAGIYTYYPDSVKGRFTISRDNAKNTLYLQMSSLKSEDTAMYYCARHGYGLFDVWGAGTTVTVSS
VL: not shown
notes: also called anti-C149-2C01 mouse monoclonal antibody
binding result: binds
